Data taken from US20250019439A1 (Adimab, published 2025).

B1: ADI-34139 (antibody, V domains shown)
VH: EVQLLESGGGLVQPGGSLRLSCAASGFTFSSYAMSWVRQAPGKGLEWVSTISGSGGSTYYADSVKGRFTISRDNSKNTLYLQMNSLRAEDTAVYYCARLGGRRGSGSSYYYYYGMDVWGQGTTVTVSS
VL: not shown
notes: anti-ID IgG
B2: ADI-34140 (antibody, V domains shown)
VH: B1 VH
VL: not shown
notes: anti-ID IgG

What was measured:
[1] = target: T1, ADI-22523 Fab; assay: BLI; tip anti-ID IgG, solution ADI-22523 Fab
T1 construct: anti-CD3 Fab by papain digestion of the IgG
Protocol: (§1) ForteBio affinity measurements were performed generally as previously described (Estep et al., MAbs. 2013 5(2):270-8). Briefly, ForteBio affinity measurements were performed by loading antibody IgG or Fabs on-line onto AHC sensors. Sensors were equilibrated off-line in assay buffer for 30 minutes and then monitored on-line for 60 seconds for baseline establishment. For avid binding measurement, sensors with loaded antibodies were exposed to IgG or Fab solutions for 3 minutes, afterwards they were transferred to assay buffer for 3 minutes for off-rate measurement. Kinetics data were fit using a 1:1 binding model in the data analysis software provided by ForteBio to obtain equilibrium dissociation constant (KD=koff/kₒₙ) values. In each column, tip-immobilized antibodies are listed first and solution antibodies second.

[2] = target: T2, ADI-22523 IgG; assay: BLI; tip anti-ID IgG, solution ADI-22523 IgG
T2 construct: anti-CD3 IgG
Protocol: as §1

T2 sequence (VH, as listed by the source limits assumed, chain 1 of 2): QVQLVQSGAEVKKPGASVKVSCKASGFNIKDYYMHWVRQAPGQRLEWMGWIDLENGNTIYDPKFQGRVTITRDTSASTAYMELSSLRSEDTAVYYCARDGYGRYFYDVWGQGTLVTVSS
T2 sequence (VL, as listed by the source limits assumed, chain 2 of 2): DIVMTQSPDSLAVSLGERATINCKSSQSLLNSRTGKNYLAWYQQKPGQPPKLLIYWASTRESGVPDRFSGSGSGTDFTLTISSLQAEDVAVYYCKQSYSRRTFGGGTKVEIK
T1 sequence (VH, as listed by the source limits assumed, chain 1 of 2): as the sequence (VH, as listed by the source limits assumed, chain 1 of 2) above
T1 sequence (VL, as listed by the source limits assumed, chain 2 of 2): as the sequence (VL, as listed by the source limits assumed, chain 2 of 2) above

Binder | Kd [1] [nM] | Kd [2] [nM]
B1 | 12.5 | 2.99
B2 | 18.9 | 2.9
